According to patent publication US12312397B2, “Anti-O2 antibodies and uses thereof” (priority 2016, dated 2025):

Assays:
KPC strain Kp961842_O2 = experiment: Lethal pneumonia model, KPC strain Kp961842_O2; assay type: in vivo, Klebsiella pneumoniae; details: C57/BL6 mice, 2e8 CFU; mAb 2 mg/kg 1 hour post infection; survival
Description: (§1) C57/BL6 mice were obtained from Jackson Laboratories and maintained in a special pathogen-free facility. All animal experiments were conducted in accordance with Institutional Animal Care and Use Committee (IACUC) protocol and guidance. K. pneumoniae strains were grown on agar plates overnight and diluted in saline at proper concentration. The inoculum titer was determined by plating a serial dilution of bacteria onto agar plates prior to and post challenge. In acute pneumonia models, C57/BL6 mice were inoculated with 1e4 to 2e8 colony-forming units (CFU) of K. pneumoniae clinical isolates in 50 μl saline intranasally. Anti-K pneumoniae monoclonal antibodies (mAbs) and human IgG1 control antibodies were given 1-24 hour post bacterial challenge (therapeutic dosing). Mouse survival was monitored daily until up to day 8. Survival data of representative experiments were plotted in Graphpad Prism software.
(§2) Mice were challenged with 2e8 CFU of Klebsiella pneumoniae Carbanpenemase (KPC) strain Kp961842_O2 or with 3e8 CFU of KPC strain Kp977778_O2, followed by the administration of anti-O2 mAbs. When administered at a concentration of 2 mg/kg 1 hour post bacterial infection, Class III anti-O2 LPS mAbs KPN42, KPN179-IgG1, and KPS44v2017 protected mice from lethal bacterial challenge with the multi-drug resistant KPC strains Kp961842_O2 (FIG. 6, left panel, and FIG. 10) and Kp977778_O2 (FIG. 6B, right panel).

K. pneumoniae O1/O2 = experiment: Mouse protection models (O1/O2), Table 7 summary; assay type: in vivo, Klebsiella pneumoniae; set-up: key: +++: Strongly positive activity; +: Positive activity; +/−: Somewhat positive depending upon the test conditions; details: mouse pneumonia models
Description: As described in more detail in below, anti-O2 LPS mAbs were tested for: 1) binding to O1 and O2 LPS (see Example 5); 2) LPS neutralization (LPS-Neut) against O1 and O2 LPS (see Example 7); 3) OPK against capsule mutant strain 43816ΔcpsB lux (O1) and 8570ΔcpsB lux (O2) (see Example 8); and 4) protective activity in pneumonia models (see Example 9). O2 LPS mAbs were subsequently divided into three classes based on their in vitro activities. Class I mAbs were characterized as Binding (O1+O2+)/OPK (O1−O2+); Class 2 mAbs were characterized as Binding (O1+O2+)/OPK (O1+O2+); and Class III mAbs were characterized as Binding (O1±O2+)/OPK (O1−O2+).
as §1, with “Anti-K pneumoniae monoclonal antibodies (mAbs) and human IgG1 control antibodies were given 1-24 hour post bacterial challenge (therapeutic dosing).” left out, “Survival data of representative experiments were plotted in Graphpad Prism software.” left out

[1] = system: O2 LPS activation of NF-κB in RAW264.7-lux cells; experiment: LPS neutralization assay (NF-κB luciferase, RAW264.7-lux), O2 LPS; assay type: cell-based, murine; details: for neutralizing activity against O2 LPS (NF-κB activation): human IgG1 format; for neutralization of LPS-O2: secondary screening
In short: (§3)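 Serially diluted mAbs (human IgG1) pre-mixed 1:1 with LPS at 4 °C for 1 hr, then diluted 1:10 onto RAW264.7-lux cells carrying an NF-κB-driven firefly luciferase; 2.5 h at 37 °C. Luminescence read; % inhibition relative to no-antibody and negative-control mAb wells.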

[2] = system: O1 LPS activation of NF-κB in RAW264.7-lux cells; experiment: LPS neutralization assay (NF-κB luciferase, RAW264.7-lux), O1 LPS; assay type: cell-based, murine; details: for neutralizing activity against O1 LPS (NF-κB activation): human IgG1 format; for neutralization of LPS-O1: secondary screening
In short: as §3

[3] = system: K. pneumoniae 8570ΔcpsBLux (O2); experiment: Opsonophagocytic killing (OPK) assay, O2 capsule mutant; assay type: cell-based, Klebsiella pneumoniae; set-up: key to D Capsule OPK O2: +++: Strongly positive activity; +: Positive activity; +/−: Somewhat positive depending upon the test conditions
In short: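 Luminescent capsule-deficient K. pneumoniae strains were mixed with DMF-differentiated HL-60 cells, 1:10 baby rabbit serum and anti-O2 LPS mAbs (2 ng–2.5 μg/mL), then shaken for 2 h at 37 °C. Killing % came from luminescence (RLU) against no-antibody and negative-control mAb wells, with >40% scored as positive.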

KPC strain Kp977778_O2 = experiment: Lethal pneumonia model, KPC strain Kp977778_O2; assay type: in vivo, Klebsiella pneumoniae; details: C57/BL6 mice, 3e8 CFU; mAb 2 mg/kg 1 hour post infection; survival
Description: as §1, §2

O2 LPS = experiment: ELISA binding to O2 LPS; set-up: species or system Klebsiella pneumoniae; details: secondary screening, ELISA
In short: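 Serial dilutions of monoclonal antibodies bound to LPS-coated plates for 1 h at room temperature, detected with alkaline phosphatase-conjugated anti-human IgG (1 h) and pNPP substrate (30 min). Absorbance read at 405 nm; EC50 values derived from binding curves.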

O1 LPS [4] = experiment: Western blot of purified Klebsiella LPS serotypes, O1 LPS; assay type: binding, Klebsiella pneumoniae; details: FIG. 1A
Text: FIGS. 1A-B show the expansion of the O2 LPS serotype in multi-drug resistant (MDR) strains of Klebsiella pneumoniae.
SDS-PAGE analysis followed by Silver Stain confirmed the purity of LPS. Human antibodies against O2 serotypes were then identified based on the reactivity of human B cells against the respective purified LPS. […] (FIG. 1A).

O1 LPS [5] = experiment: ELISA binding to O1 LPS; set-up: species or system Klebsiella pneumoniae; details: secondary screening
Description: The coated plates were incubated with cell culture supernatants from polyclonally stimulated lymphocytes (AMVBRA) or from monoclonal immortalized B cells (donor interrogations) containing fully human antibodies or with diluted plasma samples (PBMC donor selections) for 1 hour at room temperature. The plates were then washed with PBS containing 0.1% Tween-20 (PBS-T). Secondary antibody was added; either Alkaline Phosphatase-conjugated Goat Anti-Human IgG-AP (Southern Biotech, 2040-04, 1:1000 in PBS-B) or Peroxidase AffiniPure F(ab′)2 Fragment Goat Anti-Human IgG, Fc Fragment Specific (Jackson ImmunoResearch #309 036 098, 1:5000 in PBS-B) were used. Secondary antibodies were typically incubated for 1 h. Plates were washed three times with PBS-T, and P-NitroPhenyl Phosphate (pNPP, Sigma-Aldrich, cat #N2765-100TAB) or Sureblue (KPL, 53-00-03) substrates were added and incubated for 10 min or until the development of a colorimetric reaction. In the case of the HRP substrate Sureblue, the reaction was stopped by adding an equal volume of 0.2N HCl. The absorbance at 405 nm (pNPP) or 450 nm (Sureblue) was measured by a microplate reader (Biotek, Elx808).
The coated plates were incubated with serial dilutions of the monoclonal antibodies for 1 hour at room temperature. The plates were then washed with PBS containing 0.1% Tween-20 (PBS-T). Alkaline Phosphatase-conjugated Goat Anti-Human IgG (Southern Biotech, 2040-04, 1:1000 in PBS-B) was added. The secondary antibody reactions were incubated for 1 h. Plates were washed three times with PBS-T, and P-NitroPhenyl Phosphate (pNPP, Sigma-Aldrich, cat #N2765-100TAB) substrate was added and incubated for 30 min or until the development of a colorimetric reaction. The absorbance at 405 nm was measured by a microplate reader (Biotek, Elx808). The data was plotted with Graphpad Prism software. Representative mAbs from each class were tested for their binding to O1 LPS (FIG. 2A) and O2 LPS (FIG. 2B), and EC50 values were obtained (FIG. 2C). The majority of the anti-O2 LPS mAbs bound to both O1 and O2 LPS by ELISA. […] None of these LPS mAbs bound to the 03, 04, 05, 07, or 012 LPS serotypes (see e.g., FIG. 1A).

B1: KPN70: Class I anti-O2 antigen human mAb; VH SEQ ID NO: 44, VL SEQ ID NO: 45 (antibody, V domains shown)
VH: QVQLQESGPGLVKPSETLSLTCTVSGGSISTYYWNWIRQSPGKELEWIANIHQSGTTYYNPSLKSRVTMSVDTSKNQFSLKVISVTAADTAVYYCARESDDGYKWNYFDYWGQGTLVTVSS
VL: EIVLTQSPASLSLSPGERATLSCRASQIVTNYLAWYQHKPGQAPRLLIFDMSIRAAGIPARFSGSGSGTDFTLTISSLEPEDFAVYYCQHRSNWPLFTFGPGTKVDIK
modifications: Description of Artificial Sequence: SyntheticKPN70 VH polypeptide; Description of Artificial Sequence: SyntheticKPN70 VL polypeptide
protection from lethal bacterial challenge, Kp961842_O2 (KPC strain Kp961842_O2): did not protect
Mouse protection models (O1/O2) (K. pneumoniae O1/O2): +/−
neutralizing activity against O2 LPS (NF-κB activation) [1]: blocked
neutralization of LPS-O2 [1]: neutralize
neutralizing activity against O1 LPS (NF-κB activation) [2]: blocked
neutralization of LPS-O1 [2]: neutralize
D Capsule OPK O2 ([3]; capsule mutant strain 8570ΔcpsB lux (O2)): +++
protection from lethal bacterial challenge, Kp977778_O2 (KPC strain Kp977778_O2): did not protect

B2: KPD1: Class I anti-O2 antigen human mAb; VH SEQ ID NO: 134, VL SEQ ID NO: 135 (antibody, V domains shown)
VH: QVQLQESDPRLVKPSETLSLTCSVSGVSITSNTYWWAWIRQPPGKKLEWIGSLSYSGDTYYNPSLTSRVTISRDIHQNQFFLELNSVTAADTAMYYCARDPDIIRNFQFDYWGRGTLVTVSS
VL: EIVLTQSPGILSLSPGERATLSCRVSQILYMSHLAWYQHKPGQAPRLLIYGASIRATGVPDRFSGSGSGTDFTLTISRLEPEDFAVYYCQQYGASPTFGQGTMVEIK
modifications: Description of Artificial Sequence: SyntheticKPD1 VH polypeptide; Description of Artificial Sequence: SyntheticKPD1 VL polypeptide
protection from lethal bacterial challenge, Kp961842_O2 (KPC strain Kp961842_O2): did not protect
binding to LPS-O2 (O2 LPS): showed binding
cross-reactivity with O1 LPS (O1 LPS [4]): showed cross-reactivity with O1 LPS
neutralizing activity against O2 LPS (NF-κB activation) [1]: blocked
neutralization of LPS-O2 [1]: neutralized
neutralizing activity against O1 LPS (NF-κB activation) [2]: blocked
neutralization of LPS-O1 [2]: neutralized
OPK activity against O2 capsule mutant ([3]; secondary screening): showed OPK activity
binding to LPS-O1 (O1 LPS [5]): showed binding
protection from lethal bacterial challenge, Kp977778_O2 (KPC strain Kp977778_O2): did not protect
